From the supplement of paper PMC10126150 come the findings set out here.

± gives the standard deviation of the averaged measurements.
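Note: ATP exposure 15 min at 22 °C before imaging.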

The subject of the data set is ATP. Kind of data set: switch fluorescence ratio, 500 uM ATP over buffer (Cy3 cluster intensity, sum of 5 cycles each) (fold (ratio)); higher = stronger signal-on switching upon ATP binding; sequences stand for … in TCGTCGGCAGCGTCAGATGTGTATAAGAGACAGTTTTTTTTTTTTTTTTTTTTTTTTT…TC. The settings on record: aptamer strand: ATP DNA aptamer (quencher-CACCTGGGGGAGTATTGCGGAGGAAGG + anchor), 100 nM annealed; ATP concentration: 500 uM. Summed up: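 After annealing to 100 nM quencher-labelled ATP aptamer, Cy3-labelled switching-strand clusters on a modified Illumina MiSeq flow-cell were imaged in selection buffer. A second image followed after 15 min with 500 uM ATP at 22 °C, and five such buffer/ATP cycles were done, each separated by NaOH stripping and re-annealing. The fluorescence ratio, averaged per switch-domain sequence, is summed target-cycle over summed buffer-cycle Cy3 intensity per cluster, with clusters outside 100-1000 RFU excluded.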
For the sequence CATGTGTGGG, the switch fluorescence ratio stood at 1.01 ± 0.029.

Regarding GAGGGGGGGG, the switch fluorescence ratio was 1.01 ± 0.039.

For GAGTTACATG, the switch fluorescence ratio is 1.02 ± 0.048.

In the case of AGTATTTAGG, the switch fluorescence ratio is 0.9808 ± 0.0043.

Turning to TTGGCTTTAT, the switch fluorescence ratio came to 0.982 ± 0.04.

On to TTGGGCCATG, for which the switch fluorescence ratio was determined as 1.05 ± 0.027.

As for CAGTGCGTTT, the switch fluorescence ratio stood at 1.01 ± 0.013.

In the case of AGGTGTAGGG, the switch fluorescence ratio worked out at 1.01 ± 0.025.

Consider TGTGTCTATA, for which the switch fluorescence ratio worked out at 0.97698 ± 0.00069.

Regarding GAACGTGGGT, the switch fluorescence ratio came out at 0.987 ± 0.052.

For the sequence TTATGAAGAC, the switch fluorescence ratio was determined as 1.025 ± 0.01.

As to AAGGATTCCA, the switch fluorescence ratio was found to be 0.981 ± 0.014.

TCATCGGGTC: the switch fluorescence ratio was found to be 1.05 ± 0.017.

As to GGGGGTGTCG, the switch fluorescence ratio came to 0.994 ± 0.035.

Take TCTGTAAGGG: the switch fluorescence ratio stood at 0.9783 ± 0.0076.

Turning to CAGCTTATCG, the switch fluorescence ratio worked out at 0.995 ± 0.014.

In the case of AAAATGAGTG, the switch fluorescence ratio stood at 0.985 ± 0.021.

Take GTCAGTATAA: the switch fluorescence ratio amounted to 1.03 ± 0.059.

For TACTTAATAG, the switch fluorescence ratio amounted to 1.03 ± 0.0015.

On to GGGGAGGGCA, for which the switch fluorescence ratio was found to be 1.02 ± 0.035.

For GTCGGATGCT, the switch fluorescence ratio is 1.02 ± 0.047.

Turning to CTTAGGGAGT, the switch fluorescence ratio amounted to 1.006 ± 0.0028.

GAGTGATAAG: the switch fluorescence ratio is 1 ± 0.017.

In the case of GTGGGTACCA, the switch fluorescence ratio was 0.968 ± 0.017.

On to AGAAGTGTTT, for which the switch fluorescence ratio stood at 1.022 ± 0.0063.

GATGCGGTTT: the switch fluorescence ratio is 0.994 ± 0.019.

Regarding TAAGGCTGC, the switch fluorescence ratio worked out at 1.04 ± 0.076.

As for TTTGGGTTCG, the switch fluorescence ratio was 0.986 ± 0.019.

For the sequence GTGAGATGGA, the switch fluorescence ratio was 0.953 ± 0.03.

For GGGAGGTTCT, the switch fluorescence ratio was found to be 0.974 ± 0.033.

TTTTGGTTAT: the switch fluorescence ratio worked out at 1.01 ± 0.03.

On to AGGAGAAGGG, for which the switch fluorescence ratio stood at 0.985 ± 0.018.

Regarding GGAAACTTTG, the switch fluorescence ratio was determined as 1.04 ± 0.11.

On to GGTAAAAGAT, for which the switch fluorescence ratio turned out to be 0.977 ± 0.015.

GGATTTATGA: the switch fluorescence ratio was 1.002 ± 0.0092.

With CGACTGTTTT, the switch fluorescence ratio amounted to 1.02 ± 0.015.

As for GTGGACACAC, the switch fluorescence ratio amounted to 1.04 ± 0.035.

On to TGTGTGGGTA, for which the switch fluorescence ratio was found to be 0.95768 ± 0.00058.

For CAGGGCGCCT, the switch fluorescence ratio was 1.012 ± 0.002.

Take GGTTATAGAC: the switch fluorescence ratio stood at 0.994 ± 0.012.

As for CGGGTATTCG, the switch fluorescence ratio was 0.99 ± 0.03.

Consider ACGTAAAAGT, for which the switch fluorescence ratio amounted to 1.25 ± 0.41.

As for AGGCGTTGGT, the switch fluorescence ratio was determined as 1.05 ± 0.11.

For the sequence GATAAACGAT, the switch fluorescence ratio came to 1.02 ± 0.031.

Turning to CGAGACCACA, the switch fluorescence ratio was 1.05 ± 0.043.

Regarding AGCGGATTCG, the switch fluorescence ratio came out at 0.969 ± 0.053.

As to AAGGGGCACT, the switch fluorescence ratio came out at 1.02 ± 0.047.

With CAGTGTGCAG, the switch fluorescence ratio came out at 0.9602 ± 0.0028.

For the sequence TATATTTTTT, the switch fluorescence ratio came to 1.02 ± 0.068.

On to TTGTTTACCC, for which the switch fluorescence ratio turned out to be 0.9713 ± 0.0036.

As to GAGTGAGACT, the switch fluorescence ratio worked out at 1.02 ± 0.072.

Turning to AAATTGGCAG, the switch fluorescence ratio came out at 1.06 ± 0.16.

Take AAATTCTTCT: the switch fluorescence ratio was 1.04 ± 0.04.

With CAAAGGACCT, the switch fluorescence ratio came to 1.136 ± 0.0082.

With CGTAGTTCGT, the switch fluorescence ratio worked out at 1.036 ± 0.0046.

CGGTATTCTT: the switch fluorescence ratio amounted to 0.9883 ± 0.0068.

For the sequence CCTATGCAGT, the switch fluorescence ratio was determined as 5.33 ± 0.3.

Consider AAAAATGTTA, for which the switch fluorescence ratio was determined as 1.01 ± 0.018.

Consider TCAAGCACTT, for which the switch fluorescence ratio was 1.25 ± 0.028.

For CGGGGAGTAT, the switch fluorescence ratio was 0.975 ± 0.015.

As for TTTGCTGACG, the switch fluorescence ratio turned out to be 1.02 ± 0.055.

As for ACTTATATAG, the switch fluorescence ratio was 1.012 ± 0.0065.

Consider GACCAGGTTA, for which the switch fluorescence ratio came out at 1.181 ± 0.0052.

ATAGTTCCAT: the switch fluorescence ratio was 0.9783 ± 0.005.

For the sequence AAAGGAGGGC, the switch fluorescence ratio was found to be 0.968 ± 0.067.

As for AATGGGGTAC, the switch fluorescence ratio is 1.009 ± 0.0087.
